Reference: publication PMC11984302

Columns and labels:
Settings in all cases: SICS: thrombin in 1 M KCl (or 150 mM KCl), pH 7.5, 30 min incubation, 300 mV; gel: 16% Tris-Glycine; temperature not stated
[1] = target: T1, thrombin (human plasma, Sigma-Aldrich) (Homo sapiens) (UniProt P00734+P00734); test: free translocation nanopore
[2] = target: T1, thrombin (human plasma, Sigma-Aldrich) (Homo sapiens); test: single-molecule SICS nanopore
[3] = target: T1, thrombin (human plasma, Sigma-Aldrich) (Homo sapiens); test: single-molecule SICS nanopore; remark: listed apart in the source

Sequence: TCAGCTTGCGGAGATGCGATGGTTGGTGTGGTTGGATCGAGAAAAAGGTACGCCC / GGGCGTACCTTTTTCTCGATATCGCATCTCCGCAAGCTGA [extended TBA 1 in single-gap DNA carrier]
- binding signal (% events with thrombin bound) [1]: 14.1
- binding signal (% carriers with thrombin bound) [2]: 52
- binding signal (% carriers with thrombin bound) [3]: > 30
